Laboratory results reported in the RNAGym collection of RNA variant scans (doi:10.1093/nar/gkz1192).

B1: CPEB3 Ribozyme (parent)
chain: UAACAGGGGGCCACAGCAGAAGCGUUCACGUCGCAGCCCCUGUCAGAUUCUGGUGAAUCUGCGAAUUCUGCUGUAUAUCUC

Variants of: B1
Experiment: self-cleavage, relative activity (ratio to wild type); higher = more cleavage; in vitro, sequencing
How it was run: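 Libraries of CPEB3 self-cleaving ribozyme mutants came from rounds of error-prone PCR and carried barcodes, which DNA sequencing matched to variants. In vitro transcription used T7 RNA polymerase at 37°C for 5 hours, with a further 15 min in DNase I before EDTA stopped the reaction; the ribozymes cleaved during both steps. The RNA was reverse transcribed with template switching and sequenced on Illumina. Relative activity is the cleaved/total read fraction of a variant divided by that of the unmutated ribozyme, averaged over three batches with at least 5 reads.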

| Variant | self-cleavage |
| --- | --- |
| A15G A21U | 0.33 |
| A15G A21C | 0.35 |
| A15G A21G | 0.49 |
| A15G G30U | 0.42 |
| A15G G30A | 0.33 |
| A15G G30C | 0.27 |
| A15G U76C | 0.89 |
| A15G U76A | 0.94 |
| A15U A57G | 0.66 |
| A15U A57U | 0.15 |
| A15U G24C | 0.08 |
| A15U A35G | 1.24 |
| A15U A35U | 0.51 |
| A15U C23A | 0.18 |
| A15U C23U | 0.23 |
| A15G U25A | 0.28 |
| A15G U25C | 0.28 |
| A15G U25G | 0.4 |
| A15C C17U | 0.35 |
| A15U G55A | 0.46 |
| A15U G55U | 0.68 |
| A15U G73A | 1.24 |
| A15U G73U | 1.17 |
| A15U G61C | 0.07 |

| Variant | self-cleavage |
| --- | --- |
| A15U G61A | 0.37 |
| A15G C59A | 0.27 |
| A15G C59U | 0.69 |
| A15G U43A | 1.05 |
| A15G U43C | 0.47 |
| A15G U43G | 0.28 |
| A15U A75U | 0.87 |
| A15U A75G | 0.67 |
| A15G G42C | 0.25 |
| A15G G42A | 0.15 |
| A15U G22C | 0.06 |
| A15U A47U | 0.34 |
| A15U A47C | 0.29 |
| A15U A47G | 0.51 |
| A15U U51A | 0.82 |
| A15U U51C | 0.54 |
| A15U U51G | 0.89 |
| A15U C40A | 0.31 |
| A15U C40G | 0.18 |
| A15U C40U | 0.55 |
| A15U C62A | 0.14 |
| A15U C62U | 0.18 |
| A15U U26G | 0.44 |
| A15U U26C | 0.25 |

| Variant | self-cleavage |
| --- | --- |
| A15U U26A | 0.54 |
| A15C U31A | 0.42 |
| A15C U31C | 0.6 |
| A15G A64G | 0.65 |
| A15G A64C | 0.25 |
| A15G A64U | 0.33 |
| A15C C40U | 0.72 |
| A15C C34U | 0.29 |
| A15U C34U | 0.29 |
| A15U C34G | 0.27 |
| A15U C34A | 0.37 |
| A15G U60G | 0.34 |
| A15G U60C | 0.33 |
| A15G U60A | 0.35 |
| A15C U67C | 0.18 |
| A15C U41C | 1.13 |
| A15C U41G | 0.15 |
| A15C U41A | 0.22 |
| A15G C62U | 0.26 |
| A15G C62A | 0.17 |
| A15G U41G | 0.38 |
| A15G U41A | 0.23 |
| A15G U41C | 0.74 |
| A15U G52A | 1.05 |

| Variant | self-cleavage |
| --- | --- |
| A15G A56U | 0.39 |
| A15G A56C | 0.35 |
| A15G A56G | 0.62 |
| A15U G36C | 0.13 |
| A15U G36U | 0.08 |
| A15U C44G | 0.31 |
| A15U C44A | 0.32 |
| A15U C44U | 0.22 |
| A15G C17U | 0.48 |
| A15G C17A | 0.34 |
| A15U C81A | 0.32 |
| A15U C81U | 1.14 |
| A15G A18G | 0.5 |
| A15G A18C | 0.37 |
| A15G A18U | 0.26 |
| A15U A45G | 0.49 |
| A15U A45U | 0.33 |
| A15U A45C | 0.18 |
| A15C U60C | 0.28 |
| A15G A75U | 1.02 |
| A15G A75G | 0.92 |
| A15G G73C | 1.16 |
| A15G G73A | 1.19 |
| A15U G63A | 0.67 |

| Variant | self-cleavage |
| --- | --- |
| A15U G63U | 0.93 |
| A15G U49C | 0.28 |
| A15G U49A | 0.61 |
| A15G U49G | 0.52 |
| A15G U48G | 0.72 |
| A15G U48C | 0.46 |
| A15G U48A | 0.35 |
| A15U A20U | 0.27 |
| A15U A20G | 0.41 |
| A15C U25C | 0.23 |
| A15C U25A | 0.23 |
| A15G G70A | 0.29 |
| A15G G70U | 0.18 |
| A15G G70C | 0.11 |
| A15G G52C | 0.88 |
| A15G G52A | 0.99 |
| A15U C38A | 0.2 |
| A15U C38G | 0.25 |
| A15U C38U | 0.67 |
| A15G C32G | 0.11 |
| A15G C32U | 0.19 |
| A15G C32A | 0.24 |
| A15C U74C | 1.16 |
| A15G C68U | 0.67 |

| Variant | self-cleavage |
| --- | --- |
| A15G C68A | 0.2 |
| A15G C44A | 0.28 |
| A15G C44U | 0.32 |
| A15U C27U | 0.19 |
| A15G U51C | 0.74 |
| A15G U51G | 0.62 |
| A15G U51A | 0.9 |
| A15U G19U | 0.23 |
| A15U G19C | 0.17 |
| A15G U54A | 0.95 |
| A15G U54G | 0.96 |
| A15G U54C | 0.87 |
| A15C G33C | 0.16 |
| A15C C68U | 0.59 |
| A15U G16A | 0.57 |
| A15U G16U | 0.3 |
| A15G G22U | 0.46 |
| A15G G22A | 0.22 |
| A15G G46A | 0.38 |
| A15G G46U | 0.18 |
| A15G C34G | 0.29 |
| A15G C34A | 0.2 |
| A15G C34U | 0.25 |
| A15U C17U | 0.21 |

| Variant | self-cleavage |
| --- | --- |
| A15U C17A | 0.6 |
| A15U C17G | 0.36 |
| A15U A21U | 0.19 |
| A15U A21G | 0.35 |
| A15U A21C | 0.36 |
| A15U C32G | 0.06 |
| A15U C32A | 0.24 |
| A15U C32U | 0.4 |
| A15U C71U | 0.33 |
| A15G A47U | 0.64 |
| A15G A47G | 0.87 |
| A15G U66G | 0.35 |
| A15G U66A | 0.45 |
| A15G U66C | 0.37 |
| A15U C29U | 0.5 |
| A15G U78C | 0.78 |
| A15G U78A | 0.96 |
| A15G U78G | 1.06 |
| A15C U48C | 0.47 |
| A15G C38U | 0.81 |
| A15G C38A | 0.42 |
| A15G C29A | 0.16 |
| A15G C29U | 0.41 |
